Where only a bound is given, the exact number is not on record here.

For assay [1], the target named is Arabidopsis cytosolic glyceraldehyde-3-phosphate dehydrogenase (GAPC1), recombinant, His-tagged (Arabidopsis thaliana) (UniProt P25858). Kind of assay: MST; GAPC1 labelled on its His tag (RED-tris-NTA 2nd Generation), 50 nM; cyclo(His-Pro) titrated; 50 mM Tris-HCl pH 8.0 with 1.6 mM NAD+; premium capillaries, Monolith X; binding from the spectral shift A670/A650.
Assay [2] has the same target.
Assay [3] has as its target human glyceraldehyde-3-phosphate dehydrogenase (GAPDH), recombinant, His-tagged (human) (UniProt P04406).
Sequence of UniProt P04406 (P04406 whole entry): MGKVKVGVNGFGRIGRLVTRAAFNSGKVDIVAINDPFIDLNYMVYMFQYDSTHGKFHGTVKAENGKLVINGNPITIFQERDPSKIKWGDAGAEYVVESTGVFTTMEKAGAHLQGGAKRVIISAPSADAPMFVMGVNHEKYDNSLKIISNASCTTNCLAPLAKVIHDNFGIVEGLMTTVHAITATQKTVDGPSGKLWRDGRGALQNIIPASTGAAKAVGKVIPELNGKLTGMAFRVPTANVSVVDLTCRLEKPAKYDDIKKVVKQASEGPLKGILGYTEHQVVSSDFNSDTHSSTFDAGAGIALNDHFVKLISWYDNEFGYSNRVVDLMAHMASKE
The target of assay [4] is Arabidopsis cytosolic glyceraldehyde-3-phosphate dehydrogenase (GAPC1), recombinant, His-tagged (Arabidopsis thaliana) (UniProt P25858). The assay is described as follows: nano-differential scanning fluorimetry (nanoDSF); about 0.8 ug protein per capillary in 50 mM Tris-HCl pH 8.0; ligands at 100 uM (cyclo(Tyr-Asp) also at 500 uM and 1 mM); ramp 2 °C/min, 20 to 90 °C; shift of the melting temperature against mock. (In general: Differential scanning fluorimetry follows unfolding on heating by fluorescence.)

Sequence of UniProt P25858 (P25858 whole entry): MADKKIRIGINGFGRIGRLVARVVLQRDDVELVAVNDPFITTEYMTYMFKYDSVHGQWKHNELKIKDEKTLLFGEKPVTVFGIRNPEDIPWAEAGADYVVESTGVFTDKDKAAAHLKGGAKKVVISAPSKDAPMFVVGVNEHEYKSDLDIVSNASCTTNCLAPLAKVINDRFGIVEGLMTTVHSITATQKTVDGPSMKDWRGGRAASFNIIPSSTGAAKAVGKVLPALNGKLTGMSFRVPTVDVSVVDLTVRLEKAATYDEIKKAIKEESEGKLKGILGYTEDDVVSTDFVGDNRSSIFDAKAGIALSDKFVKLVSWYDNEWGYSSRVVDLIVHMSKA

With “cyclo(His-Pro), cyclo(L-histidyl-L-proline) (peptide)”, the dissociation constant (Kd) (commonly the concentration at which binding is half-saturated) in assay [1] amounted to 40 µM. The IC50 of inhibition of GAPC1 enzymatic activity (oxidation of glyceraldehyde-3-phosphate, reduction of NAD+ to NADH) in assay [2] was determined as 200 µM. The IC50 of inhibition of GAPDH enzymatic activity in assay [3] was 70 µM. Moreover, the shift of the melting temperature at 100 μM ligand in assay [4] is more than 4 °C.

With “cyclo(Tyr-Asp), cyclo(L-tyrosyl-L-aspartic acid) (peptide)”, the IC50 of inhibition of enzymatic activity in assay [2] was determined as 1500 µM.

The record behind these values is publication PMC12089766.
